According to article PMC6071530 (2018):

Target: ERBB2 (Homo sapiens (Human), UniProt P04626)
Test: SPR (ErbB-Fc on chip, avid)

Kd: > 1.25 µM
B1: S100A4 (protein)
chain 1: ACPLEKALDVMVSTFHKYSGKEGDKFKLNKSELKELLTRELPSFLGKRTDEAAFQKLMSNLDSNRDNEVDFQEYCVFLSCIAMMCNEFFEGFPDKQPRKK
chain 2: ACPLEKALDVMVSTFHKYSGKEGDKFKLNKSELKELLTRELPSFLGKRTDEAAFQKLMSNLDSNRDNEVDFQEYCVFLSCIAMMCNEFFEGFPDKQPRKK
